Columns and labels:
Notch1 [1] = assay: Notch activation with streptavidin-coated polystyrene beads (CHO-K1 N1-Gal4); format: cell-based; settings: 25 μm beads, ratio 1:1 with reporter cells
Protocol: Biotinylated WT DLL4 or Delta^MAX (26 μg) were coated in 1.33 mg of streptavidin-coated polystyrene beads for 1 hour at 4° C. in DPBS+0.1% BSA. The beads were washed three times with 500 μL of DPBS+0.1% BSA before and after coating. DLL4 pre-coated beads were counted in the microscope and 100 μL containing 30,000 beads combined in ratio 1:1 with 100 μL of α-MEM with CHO-K1 N1-Gal4 reporter cell lines in 96-well tissue culture plates. The plate was incubated for 24 hours at 37° C., 5% CO2, and Notch activation measure by flow cytometry. The data represent Notch activation as a function of mean fluorescent intensity±s.d. of three biological replicates.
Target sequence in this assay (P46531 295-488 limits assumed): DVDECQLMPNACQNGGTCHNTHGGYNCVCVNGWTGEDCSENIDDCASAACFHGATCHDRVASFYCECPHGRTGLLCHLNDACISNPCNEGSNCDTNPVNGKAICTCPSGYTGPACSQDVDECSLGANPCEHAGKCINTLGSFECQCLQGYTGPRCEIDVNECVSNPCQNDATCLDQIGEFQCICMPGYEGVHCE

Notch1 (EGF6-13) = assay: SPR determination of equilibrium dissociation constants; format: binding, human
Protocol: Equilibrium dissociation constants were determined by surface plasmon resonance using a Biacore T200 instrument (GE Healthcare). Approximately 100 resonance units (RU) of biotinylated Notch extracellular fragments (Notch1 (EGF6-13), Notch2 (EGF6-13), Notch3 (EGF5-12), Notch4 (7-12), and mouse Notch1 (EGF6-13)) were immobilized on individual flow cells at 5 μl/min using a streptavidin-coated sensor chip (Series S Sensor chip SA, GE Healthcare). Three-fold serial dilutions of recombinant DLL4 proteins (N-EGF5) starting at 50 μM (WT DLL4), 18 μM (DLL4.v2), and 6 μM (DLL4.v1 and Delta^MAX) were flowed over the chip at 25° C. in SPR buffer (20 mM HEPES pH 7.4, 150 mM NaCl, 1 mM calcium chloride, 0.1% BSA supplemented with 0.005% surfactant P20). Association (“on-rate”) and dissociation (“off-rate”) phases were performed at 10 μl/min for 120 seconds and 300 seconds, respectively. The sensor chip was regenerated after each injection with 30-second washes of 2.25M Magnesium Chloride containing 25% Ethylene Glycol at 50 μL/min. Data collection rate was performed at 10 Hz, and curves were reference-subtracted from a flow cell containing 100 RU of a negative control non-related protein (biotinylated mouse RNF43 PA domain). The maximum RU for each experiment was normalized to a value of 100% and plotted as a function of concentration using Prism 9 software (GraphPad). Steady-state binding and kinetic curves were fitted using the Biacore T200 evaluation software to a 1:1 Langmuir model to determine the KD values.

Notch1 [2] = assay: Notch inhibition assay in co-culture format (CHO-K1 N1-Gal4 with HEK293T expressing WT DLL4); format: cell-based; settings: co-culture 1:1 with HEK293T expressing WT DLL4; read-out: IC50 for inhibition of Notch1 activation by cellular DLL4
Protocol: For inhibition of CHO-K1 N1-Gal4 cells with DAPT and Delta^MAX, the experiment was set-up following the protocol described above with the exception that CHO-K1 N1-Gal4 reporters were incubated with HEK293T-expressing WT DLL4 for Notch activation. Three-fold serial dilutions of soluble Delta^MAX and DAPT were prepared in DPBS starting at 6,000 nM. For DAPT, a stock solution of 100 μM in 8% DMSO was prepared before serial dilutions in DPBS. Appropriate DMSO controls were also assayed for cytotoxicity. Final DMSO concentration in the wells was maintained below 1%. Thirty thousand signal senders and pre-blocked signal receivers (100 μL each) were incubated for 24 hours at 37° C. and 5% CO2 before analysis by flow cytometry. Maximum Notch activation (100%) was set in the absence of soluble inhibitors and normalized to wells containing CHO-K1 N1-Gal4 cells and HEK293T lacking expression of WT DLL4. Mean fluorescence intensity is represented as percentage relative to Notch activation in the absence of inhibitors±s.d. of three independent biological replicates.

Notch3 = assay: Notch activation in co-culture format with HEK293T (U2OS luciferase reporter); format: cell-based, human; settings: HEK293T expressing full-length ligand, 1:1 ratio
Protocol: (§1) On day one, U2OS reporter cells (signal receiver cells) were detached with trypsin-EDTA, washed with DPBS, and 5×10^5 cells were added to 6-well plates (Falcon) for transfection with luciferase reporter vectors. On day two, U2OS cells were transfected as described above. On day three, signal receiver cells were detached with trypsin-EDTA, and 100 μL of DMEM media containing 20,000 cells were added to tissue culture 96-well plates (Coastar). In parallel, HEK293T-expressing WT DLL4 or Delta^MAX were detached with trypsin-EDTA, counted manually, and dilutions prepared such that 100 μL of DMEM containing 20,000 signal sender cells were added over signal receiver cells (cell ratio 1:1). Doxycycline (Sigma) at 2 μg/mL was used to induce Notch-Gal4 expression. On day four, luciferase firefly and Renilla signals were determined with Dual-Glo luciferase assay system (Promega) using a GloMax luminometer (Promega). A luminescence ratio firefly:Renilla was determined for every well and normalized to the signal of a well containing U2OS reporter cells and HEK293T non-expressing DLL4 ligands. Notch activation is represented as the mean fold-change over the control±s.d. of three independent biological replicates.

Notch1 [3] = assay: as above; format: cell-based, human; settings: HEK293T expressing full-length ligand, 1:1 ratio
Protocol: as §1
Target sequence in this assay (P46531 19-1664 limits assumed): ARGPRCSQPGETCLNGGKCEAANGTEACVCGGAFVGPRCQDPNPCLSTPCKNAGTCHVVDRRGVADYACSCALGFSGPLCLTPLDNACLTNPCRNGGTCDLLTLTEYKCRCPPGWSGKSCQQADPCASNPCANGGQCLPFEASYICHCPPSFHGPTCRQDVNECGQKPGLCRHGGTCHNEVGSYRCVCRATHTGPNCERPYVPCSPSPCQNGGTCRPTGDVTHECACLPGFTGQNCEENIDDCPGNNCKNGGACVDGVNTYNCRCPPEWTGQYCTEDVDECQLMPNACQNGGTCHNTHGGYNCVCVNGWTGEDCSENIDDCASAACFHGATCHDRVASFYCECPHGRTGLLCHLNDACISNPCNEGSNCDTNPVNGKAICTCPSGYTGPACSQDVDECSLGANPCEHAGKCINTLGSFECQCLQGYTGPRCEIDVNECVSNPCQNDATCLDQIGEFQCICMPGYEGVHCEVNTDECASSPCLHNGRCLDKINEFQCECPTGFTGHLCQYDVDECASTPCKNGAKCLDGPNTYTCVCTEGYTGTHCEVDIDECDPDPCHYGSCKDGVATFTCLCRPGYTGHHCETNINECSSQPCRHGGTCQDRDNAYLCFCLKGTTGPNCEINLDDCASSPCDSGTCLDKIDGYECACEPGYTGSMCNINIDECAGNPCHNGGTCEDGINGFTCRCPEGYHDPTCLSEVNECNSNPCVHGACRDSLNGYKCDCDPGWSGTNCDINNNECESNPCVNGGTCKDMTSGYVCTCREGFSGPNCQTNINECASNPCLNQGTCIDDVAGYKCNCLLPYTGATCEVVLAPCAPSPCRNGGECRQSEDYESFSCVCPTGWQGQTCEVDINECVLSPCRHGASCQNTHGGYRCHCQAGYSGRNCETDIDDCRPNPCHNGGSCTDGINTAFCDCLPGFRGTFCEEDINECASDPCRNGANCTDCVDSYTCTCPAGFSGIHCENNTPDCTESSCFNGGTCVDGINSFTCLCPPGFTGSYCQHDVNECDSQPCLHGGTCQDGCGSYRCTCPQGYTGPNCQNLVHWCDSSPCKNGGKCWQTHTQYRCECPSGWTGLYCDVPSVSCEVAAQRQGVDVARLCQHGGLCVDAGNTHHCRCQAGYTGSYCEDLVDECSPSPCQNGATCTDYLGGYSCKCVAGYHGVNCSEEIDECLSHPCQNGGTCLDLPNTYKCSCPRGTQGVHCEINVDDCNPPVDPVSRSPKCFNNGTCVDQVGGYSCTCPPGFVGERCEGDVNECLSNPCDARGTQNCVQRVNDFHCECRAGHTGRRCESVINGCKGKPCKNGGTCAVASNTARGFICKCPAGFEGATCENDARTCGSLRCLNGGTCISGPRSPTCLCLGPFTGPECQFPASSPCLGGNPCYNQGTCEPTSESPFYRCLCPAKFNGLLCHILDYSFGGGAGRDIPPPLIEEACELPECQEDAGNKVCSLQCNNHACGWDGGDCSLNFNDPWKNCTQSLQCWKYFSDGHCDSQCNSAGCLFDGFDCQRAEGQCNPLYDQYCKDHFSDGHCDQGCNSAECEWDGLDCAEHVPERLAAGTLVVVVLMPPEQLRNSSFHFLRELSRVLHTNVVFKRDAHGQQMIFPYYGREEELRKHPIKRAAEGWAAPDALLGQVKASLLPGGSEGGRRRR
Target sequence in this assay (P46531 1665-1756 limits assumed): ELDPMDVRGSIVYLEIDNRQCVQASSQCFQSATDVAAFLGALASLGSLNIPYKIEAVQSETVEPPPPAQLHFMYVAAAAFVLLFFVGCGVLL

Notch2 = assay: as above; format: cell-based, human; settings: HEK293T expressing full-length ligand, 1:1 ratio; P=0.037
Protocol: as §1

CD8+ T cells = assay: Co-culture assay for T cell proliferation (K32 aAPCs expressing ligand); format: cell-based, human; settings: along the OKT3 concentrations, 96 h, vs K32 lacking DLL4 ligands (mock)
Protocol: Functional assays for human CD8^+ T cells were performed in co-culture with K562 cells expressing human CD32 (K32 cells) generated as described before7. Briefly, cells were γ-irradiated (100Gy) and washed twice with PBS before being loaded with OKT3 (0.0125-0.5 μg/mL, BioXcell) antibody at RT for 10 min. Human CD8^+ T cells were negatively isolated from PBMC and labeled with 5 μM of Cell Trace Violet (Invitrogen) according to manufacturer's specifications. Next, CD8^+ T cells were co-cultured with K32 cells at ratio 1:10 (T cell:K32). The frequency of proliferating T cells was determined after 96 hours by flow cytometry using a CytoFLEX II (Beckman Coulter). Zombie Green (Biolegend) was used for life/dead cell staining to discard dead cells from the analysis. A set of samples were additionally incubated with Golgi stop (BD) at 0.5 μL/well for 5 hours and washed with PBS for detection of intracellular IFNγ using anti-hIFNγ APC antibody (Biolegend). The frequency of IFNγ positive cells was analyzed by flow cytometry (CytoFLEX II, Beckman Coulter). Dead cells were excluded from the analysis by staining with Zombie green (Biolegend). The data represent the mean percentage of proliferating T cells or IFNγ^+ T cells±s.e.m. of four independent biological replicates.

Sequence of Notch1 (EGF6-13) (P46531 257-526 limits assumed): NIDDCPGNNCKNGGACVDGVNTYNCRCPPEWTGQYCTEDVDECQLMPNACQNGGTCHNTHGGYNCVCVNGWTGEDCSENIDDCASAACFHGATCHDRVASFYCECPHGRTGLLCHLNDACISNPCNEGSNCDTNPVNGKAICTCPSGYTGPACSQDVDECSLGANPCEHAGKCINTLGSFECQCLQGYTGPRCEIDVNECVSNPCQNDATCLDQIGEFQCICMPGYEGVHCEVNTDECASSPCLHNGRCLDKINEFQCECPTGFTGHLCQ
Sequence of Notch2 (Q04721 221-530 limits assumed): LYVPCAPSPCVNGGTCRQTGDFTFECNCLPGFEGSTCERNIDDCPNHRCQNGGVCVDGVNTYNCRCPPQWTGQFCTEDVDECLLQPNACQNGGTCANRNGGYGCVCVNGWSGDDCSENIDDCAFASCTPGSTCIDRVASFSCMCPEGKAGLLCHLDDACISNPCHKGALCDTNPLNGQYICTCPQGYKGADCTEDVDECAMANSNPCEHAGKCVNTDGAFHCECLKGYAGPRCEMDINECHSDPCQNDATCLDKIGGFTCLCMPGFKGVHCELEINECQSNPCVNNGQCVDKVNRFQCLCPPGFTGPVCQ
Sequence of Notch3 (Q9UM47 197-505 limits assumed): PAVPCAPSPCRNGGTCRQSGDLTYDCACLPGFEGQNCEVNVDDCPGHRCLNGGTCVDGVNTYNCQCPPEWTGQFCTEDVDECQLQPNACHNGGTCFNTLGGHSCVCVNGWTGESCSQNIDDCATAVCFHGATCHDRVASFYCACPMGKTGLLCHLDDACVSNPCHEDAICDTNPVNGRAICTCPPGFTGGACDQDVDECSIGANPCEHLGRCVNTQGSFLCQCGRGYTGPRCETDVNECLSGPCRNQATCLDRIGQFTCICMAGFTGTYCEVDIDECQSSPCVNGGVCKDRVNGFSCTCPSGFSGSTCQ

B1: Delta^MAX: engineered human DLL4 consensus variant with 10 mutations combining DLL4.v1 and DLL4.v2 mutations; sequence matches SEQ ID NO: 4/10 (protein)
chain: SSVFQLQLQEFINERGVLASGRPCEPGCRTFFRVCLKHFQAVVSPGPCTFGTVSTPVLGTNSFAVRDDSSGGGRNPLQLPLNFTWPGTFSLIIEAWHAPGDDLRPEALPPDALISKFAIQGSLAVGQNWLLDEQTSTLTRLRYSYRVICSDNYYGDNCSRLCKKRNDYFGHYVCQPDGNPSCLPGWTGEYCQQPICLSGCHEQNGYCSKPAECLCRPGWQGRLCNECIPHPGCRHGTCSTPWQCLCDEGWGGLYCDQDLNYCTHHSPCKNGATCRNSGPRSYTCTCRPGYTGVDCELELSECDSNPCRNGGSCKDQEDGYHCLCPPGYYGLHCEHSTLSCADSPCFNGGSCRERNQGANYACECPPNFTGSNCE
- reporter activity vs DLL4 microbeads (Notch1 [1]): 4.5 fold
- enhancement of affinity compared to WT DLL4 (Notch1 (EGF6-13); Notch1): 1,029 fold
- Kd (Notch1 (EGF6-13); SPR, 25° C., ligand N-EGF5, read-out: dissociation constant (KD)): 24 nM
- off-rate from fitted SPR sensograms (Notch1 (EGF6-13); series DLL4.v1, DLL4.v2, Delta^MAX, FIG. 2C Notch1 EGF6-13): progressive decreases in off-rate
- binding affinity compared to WT DLL4 (Notch1 (EGF6-13); stated for all four human Notch receptors (Notch1-4)): enhanced affinity
- IC50 (Notch1 [2]): 400 nM
- Emax of signaling vs WT DLL4 (Notch3): ~2 fold
- Emax of signaling vs WT DLL4 (Notch1 [3]): ~2 fold
- Notch2 activation compared to unstimulated cells (Notch2): significant level of Notch2 activation

B2: WT DLL4: human wild-type Delta-like 4 (N-EGF5, residues 27-400), SEQ ID NO: 1 (protein)
chain: SGVFQLQLQEFINERGVLASGRPCEPGCRTFFRVCLKHFQAVVSPGPCTFGTVSTPVLGTNSFAVRDDSSGGGRNPLQLPFNFTWPGTFSLIIEAWHAPGDDLRPEALPPDALISKIAIQGSLAVGQNWLLDEQTSTLTRLRYSYRVICSDNYYGDNCSRLCKKRNDHFGHYVCQPDGNLSCLPGWTGEYCQQPICLSGCHEQNGYCSKPAECLCRPGWQGRLCNECIPHNGCRHGTCSTPWQCTCDEGWGGLFCDQDLNYCTHHSPCKNGATCSNSGQRSYTCTCRPGYTGVDCELELSECDSNPCRNGGSCKDQEDGYHCLCPPGYYGLHCEHSTLSCADSPCFNGGSCRERNQGANYACECPPNFTGSNCE
- enhancement of the percentage of proliferating CD8+ T cells (CD8+ T cells): did not show a significant improvement

Reference: US20260055369A1, “METHOD FOR GENERATING CELLS OF THE T CELL LINEAGE WITH ENGINEERING BROADLY REACTIVE HUMAN NOTCH LIGAND” (H. Lee Moffitt Cancer Center and Research Institute, Inc., priority 2022, published 2026)
